These results are taken from PMC6336354, “A transient helix in the disordered region of dynein light intermediate chain links the motor to structurally diverse adaptors for cargo transport” (PLoS Biology, 2019).

B1: GST::LIC1(402–471)::6xHis (domain or fragment, human)
chain: WPGGSPRTPNRSVSSNVASVSPIPAGSKKIDPNMKAGATSEGVLANFFNSLLSKKTGSPGGPGVSGGSPAG
notes: single N-terminal tryptophan added in the construct; human dynein light intermediate chain 1 (DYNC1LI1), residues 402-471; source: E. coli BL21, purified (glutathione agarose, Ni-NTA; dialysis or SEC); not shown: GST, N-terminal, kept; 6xHis (after linker GSGSG), C-terminal, kept
B2: GST::LIC2(375–450)::6xHis (domain or fragment, human)
chain: WATPTRASESPARGPSGSPRTQGRGGPASVPSSSPGTSVKKPDPNIKNNAASEGVLASFFNSLLSKKTGSPGSPGAG
notes: single N-terminal tryptophan added in the construct; source: E. coli BL21, purified (glutathione agarose, Ni-NTA; dialysis or SEC); not shown: GST, N-terminal, kept; 6xHis (after linker GSGSG), C-terminal, kept
B3: GST::LIC2(375–492)::6xHis (domain or fragment, human)
chain: WATPTRASESPARGPSGSPRTQGRGGPASVPSSSPGTSVKKPDPNIKNNAASEGVLASFFNSLLSKKTGSPGSPGAGGVQSTAKKSGQKTVLSNVQEELDRMTRKPDSMVTNSSTENEA
notes: single N-terminal tryptophan added in the construct; also called LIC2-C; source: E. coli BL21, purified (glutathione agarose, Ni-NTA; dialysis or SEC); not shown: GST, N-terminal, kept; 6xHis (after linker GSGSG), C-terminal, kept
B4: GST::LIC1(414–471)::6xHis (domain or fragment, human)
chain: WSSNVASVSPIPAGSKKIDPNMKAGATSEGVLANFFNSLLSKKTGSPGGPGVSGGSPAG
notes: single N-terminal tryptophan added in the construct; human dynein light intermediate chain 1 (DYNC1LI1), residues 414-471; source: E. coli BL21, purified (glutathione agarose, Ni-NTA; dialysis or SEC); not shown: GST, N-terminal, kept; 6xHis (after linker GSGSG), C-terminal, kept

T3 sequence (Q8TD16 2-422): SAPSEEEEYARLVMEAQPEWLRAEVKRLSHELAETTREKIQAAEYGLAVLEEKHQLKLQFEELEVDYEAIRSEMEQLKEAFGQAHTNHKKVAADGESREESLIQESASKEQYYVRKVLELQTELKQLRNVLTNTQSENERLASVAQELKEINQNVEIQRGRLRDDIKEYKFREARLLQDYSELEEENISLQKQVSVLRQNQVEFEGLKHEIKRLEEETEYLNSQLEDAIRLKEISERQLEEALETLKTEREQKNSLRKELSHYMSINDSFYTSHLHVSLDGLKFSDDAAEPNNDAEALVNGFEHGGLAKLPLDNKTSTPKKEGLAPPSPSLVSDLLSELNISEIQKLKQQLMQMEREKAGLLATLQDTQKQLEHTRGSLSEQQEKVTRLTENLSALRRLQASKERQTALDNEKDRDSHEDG

The first test addresses T1, SPDL1(2–359)::Strep-tag II (human, UniProt Q96EA4 2-359).
T1 construct: human Spindly (SPDL1), N-terminal region, residues 2-359; also called Spindly; source: E. coli BL21, purified (Ni-NTA, TEV cleavage, Strep-Tactin; dialysis or SEC); not shown: 6xHis::MBP, N-terminal, cleaved; Strep-tag II (after linker GSGSGR), C-terminal, kept
T1 sequence (looked up): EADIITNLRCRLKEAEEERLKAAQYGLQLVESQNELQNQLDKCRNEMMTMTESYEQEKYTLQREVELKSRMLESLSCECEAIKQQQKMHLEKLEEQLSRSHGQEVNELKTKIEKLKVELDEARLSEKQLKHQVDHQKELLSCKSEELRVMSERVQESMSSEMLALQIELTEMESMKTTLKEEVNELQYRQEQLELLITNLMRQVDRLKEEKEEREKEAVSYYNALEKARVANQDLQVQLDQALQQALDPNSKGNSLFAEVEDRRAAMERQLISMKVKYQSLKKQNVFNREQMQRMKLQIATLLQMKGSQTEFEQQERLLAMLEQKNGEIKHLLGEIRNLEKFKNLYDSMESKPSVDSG
The experiment in a line: pull-down; GST::LIC::6xHis (50 pmol) with 50 or 250 pmol adaptor and glutathione agarose, 1 h at 4°C, 150 μL of 50 mM HEPES, 100 mM NaCl, 5 mM DTT, pH 7.5, 0.1% Tween 20; Coomassie staining and immunoblot against Strep-tag II. The following applies: both partners purified. In general terms: In western blotting, separated proteins are transferred to a membrane and probed.
With B1, the binding result was “binds”.

B2: the binding result is “binds”.

Consider B3, for which the binding result is reported as “binds”.

For B4, the binding result is listed as “binds”.

In another test the target is T2, HOOK3(2–552)::Strep-tag II (human, UniProt Q86VS8 2-552).
T2 construct: human Hook homolog 3 (HOOK3), residues 2-552; used for the GST pull-downs; also called Hook homolog 3; source: E. coli Rosetta, purified (Ni-NTA, TEV cleavage, Strep-Tactin; dialysis or SEC); not shown: 6xHis::MBP, N-terminal, cleaved; Strep-tag II (after linker GSGSGR), C-terminal, kept
T2 sequence (looked up): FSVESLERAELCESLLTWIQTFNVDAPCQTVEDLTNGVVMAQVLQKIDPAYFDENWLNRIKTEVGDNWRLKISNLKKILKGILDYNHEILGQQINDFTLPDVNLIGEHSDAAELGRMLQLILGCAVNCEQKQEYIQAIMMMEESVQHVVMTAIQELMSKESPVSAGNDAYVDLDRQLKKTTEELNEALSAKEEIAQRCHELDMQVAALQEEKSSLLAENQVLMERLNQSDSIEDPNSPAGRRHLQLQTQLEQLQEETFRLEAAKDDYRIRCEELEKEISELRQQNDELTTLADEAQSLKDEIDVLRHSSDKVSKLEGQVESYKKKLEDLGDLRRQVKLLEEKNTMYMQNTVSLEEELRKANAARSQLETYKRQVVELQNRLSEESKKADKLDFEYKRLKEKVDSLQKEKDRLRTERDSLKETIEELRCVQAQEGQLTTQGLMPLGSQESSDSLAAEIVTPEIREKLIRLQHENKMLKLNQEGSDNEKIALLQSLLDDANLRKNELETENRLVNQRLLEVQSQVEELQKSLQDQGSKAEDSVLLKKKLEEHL
Described as above. The following applies: both partners purified.
With B1, the binding result is on record as “binds”.

Turning to B2, the binding result is listed as “binds”.

Turning to B3, the binding result is listed as “binds”.

Consider B4, for which the binding result was “binds”.

The next test concerns the target T3, BICD2(2–422)::Strep-tag II (human, UniProt Q8TD16 2-422).
T3 construct: human bicaudal D homolog 2 (BICD2), N-terminal region, residues 2-422; also called bicaudal D homolog 2; source: E. coli BL21, purified (Ni-NTA, TEV cleavage, Strep-Tactin; dialysis or SEC); not shown: 6xHis::MBP, N-terminal, cleaved; Strep-tag II (after linker GSGSGR), C-terminal, kept
The description is as above. The following applies: both partners purified.
Regarding B1, the binding result is “binds”.

For the molecule B2, the binding result was “binds”.

On to B3, for which the binding result is on record as “binds”.

On to B4, for which the binding result is given as “binds”.
